Laboratory results: PMC5480026

Legend:
[1] = target: T1, hIFNγ receptor hIFNGR1 (human (endogenous in WISH)) (UniProt P15260)
T1 sequence: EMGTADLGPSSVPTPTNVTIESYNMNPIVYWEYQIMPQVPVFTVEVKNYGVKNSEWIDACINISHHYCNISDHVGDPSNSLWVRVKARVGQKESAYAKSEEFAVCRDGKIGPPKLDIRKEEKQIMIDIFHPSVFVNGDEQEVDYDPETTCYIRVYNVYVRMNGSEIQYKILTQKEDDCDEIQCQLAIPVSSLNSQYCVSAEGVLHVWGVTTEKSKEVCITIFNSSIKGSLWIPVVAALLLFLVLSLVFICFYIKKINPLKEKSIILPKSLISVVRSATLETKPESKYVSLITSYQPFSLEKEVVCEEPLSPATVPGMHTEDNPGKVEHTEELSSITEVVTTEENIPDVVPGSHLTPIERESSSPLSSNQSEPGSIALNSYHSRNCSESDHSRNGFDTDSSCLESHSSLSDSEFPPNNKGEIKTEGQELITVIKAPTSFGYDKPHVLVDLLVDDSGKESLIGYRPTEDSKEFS

[2] = target: T1, hIFNγ receptor hIFNGR1 (human (endogenous in WISH)); remark: listed apart in the source

Substance: His6-FLAG-K88Q fusion protein expressed in E. coli (from UniProt P01579 24-161) (ligand)
- biological activity, kynurenine bioassay on WISH cells [1]: 100 times lower

Substance: His6-FLAG-hIFNγ fusion protein expressed in E. coli (from UniProt P01579 24-161) (ligand)
- biological activity, kynurenine bioassay on WISH cells [1]: 100 times lower

Substance: human interferon-gamma (hIFNγ), tag-free after enterokinase removal of the His6-FLAG tag (from UniProt P01579 24-161) (ligand)
- specific biological activity after tag removal, kynurenine bioassay on WISH cells [2]: 3e+07 IU/mg
